Measurements reported in patent US20240117030A1 (Pfizer, published 2024).

T1: recombinant human IL-4 (human, UniProt P05112 25-153)
T1 sequence (looked up): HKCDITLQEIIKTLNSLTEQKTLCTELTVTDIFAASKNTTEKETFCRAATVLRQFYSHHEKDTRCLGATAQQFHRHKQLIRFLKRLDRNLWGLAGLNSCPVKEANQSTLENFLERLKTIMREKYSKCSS

T2: IL-33 mm2 (human, UniProt O95760 112-270, limits assumed)
T2 sequence (looked up): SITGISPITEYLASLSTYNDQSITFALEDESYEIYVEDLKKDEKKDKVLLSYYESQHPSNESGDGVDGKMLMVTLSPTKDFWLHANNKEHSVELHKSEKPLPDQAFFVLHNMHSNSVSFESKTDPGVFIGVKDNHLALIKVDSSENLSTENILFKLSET


Experiments:
Test in all cases: cell-based or functional assay
recombinant human IL-13 = recombinant human IL-13 (human, UniProt P35225 35-146)
Sequence of recombinant human IL-13 (P35225 35-146 limits assumed): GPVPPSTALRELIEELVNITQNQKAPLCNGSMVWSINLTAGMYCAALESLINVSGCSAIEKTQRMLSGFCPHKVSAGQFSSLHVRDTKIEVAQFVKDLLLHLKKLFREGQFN

recombinant human IL-4 [1] = target: T1, recombinant human IL-4
IL-33 mm2 = target: T2, IL-33 mm2
recombinant human IL-4 [2] = target: T1, recombinant human IL-4; remark: listed apart in the source
recombinant human IL-4 [3] = target: T1, recombinant human IL-4; remark: listed apart in the source

| IL-13 Induced CD23 Expression, potency of cytokine neutralization (recombinant human IL-13) [nM] | IL-4 Induced CD23 Expression, potency of cytokine neutralization (recombinant human IL-4 [1]) [nM] | IL-33 mm2 Cys Activation of SEAP Reporter Cells, potency of cytokine neutralization (IL-33 mm2) [nM] | IC50 (median), IL-4 induced CD23 expression on human monocytes (recombinant human IL-4 [2]) [nM] | IL-4 induced CD23 upregulation (IC50), parental IgG (recombinant human IL-4 [3]) [nM] | Binder |
| --- | --- | --- | --- | --- | --- |
| 0.0125 | 0.0032 | 0.045 |  |  | IL13433-0005 (other) heavy: EVTLRESGPALVKPTQTLTLTCTFSGFSLSNFGEGLSWIRQPPGKGLEWLAHIYWDDDKRYNPSLKSRLTISKDTSRNQVVLTMTNMDPVDTATYYCARRETVFYWYFDVWGQGTTVTVSSASTKGPSVFPEAPSSKSTSGGTAALGCLVKDYFPEPVTVSWNSGALTSGVHTFPAVLQSSGLYSLGSVVTVPSSSLGTQTYICNVNHKPSNTKVDKKVEPKSCDKTHTCPPCPAPEAAGAPSVFLFPPKPKDTLMISRTPEVTCVVVDVSHEDPEVKFNWYVDGVEVHNAKTKPREEQYNSTYRVVSVLTVLHQDWLNGKEYKCKVSNKALPAPIEKTISKAKGQPREPQVYTLPPCREEMTKNQVSLSCAVKGFYPSDIAVEWESNGQPENNYKTTPPVLDSDGSFFLVSKLTVDKSRWQQGNVFSCSVMHEALHNHYTQKSLSLSPGK chain 1: DIQMTQSPSSLSASVGDRVTITCKASQNINKHLDWYQQKPGKAPKLLIYFTNNLQTGVPSRFSGSGSGTDFTLTISSLQPEDFATYYCFQYNQGWTFGGGTKVEIKRTVAAPSVFIFPPSDEQLKSGTASVVCLLNNFYPREAKVQWKVDNALQSGNSQESVTEQDSKDSTYSLSSTLTLSKADYEKHKVYACEVTHQGLSSPVTKSFNRGECGGGGSEVQLVESGGGLVQPGGSLRLSCAASGFTFSSYAMSWVRQAPGKGLEWVASISSGDTTYYPDSVKGRFTISRDNAKNSLYLQMNSLRAEDTAVYYCARNEGYYFGLTLWGQGTLVTVSSASTKGPSVFPKAPSSKSTSGGTAALGCLVKDYFPEPVTVSWNSGALTSGVHTFPAVLQSSGLYSLSSSVTVPSSSLGTQTYICNVNHKPSNTKVDKKVEPKSCDKTHTCPPCPAPEAAGAPSVFLFPPKPKDTLMISRTPEVTCVVVDVSHEDPEVKFNWYVDGVEVHNAKTKPREEQYNSTYRVVSVLTVLHQDWLNGKEYKCKVSNKALPAPIEKTISKAKGQPREPQVCTLPPSREEMTKNQVSLWCLVKGFYPSDIAVEWESNGQPENNYKTTPPVLDSDGSFFLYSKLTVDKSRWQQGNVFSCSVMHEALHNHYTQKSLSLSPGK light 1: DIQMTQSPSSLSASVGDRVTITCKASQSVDEDGDSYMNWYQQKPGKAPKLLIYAASNLESGVPSRFSGSGSGTDFTLTISSLQPEDFATYYCQQSNEDPPTFGGGTKVEIKRTVAAPSVFIFPPSDEQLKSGTASVSCLLNNFYPREAKVQWKVDNALQSGNSQESVTEQDSKDSTYSLKSTLTLSKADYEKHKVYACEVTHQGLSSPVTKSFNRGEC light 2: DIQMTQSPSSLSASVGDRVTITCKASESVDHFGWSLVHWYQQKPGKAPKLLIYRASNLESGVPSRFSGSGSGTDFTLTISSLQPEDFATYYCQQSNEDPWTFGGGTKVEIKRTVAAPSVFIFPPSDEQLKSGTASVSCLLNNFYPREAKVQWKVDNALQSGNSQESVTEQDSKDSTYSLDSTLTLSKADYEKHKVYACEVTHQGLSSPVTKSFNRGEC chain 2: EVQLVESGGGLVQPGGSLRLSCAASGFTFSSYWMYWVRQAPGKGLEWVAAITPNAGEDYYPESVKGRFTISRDNAKNSLYLQMNSLRAEDTAVYYCARGHYYYTSYSLGYWGQGTLVTVSSASTKGPSVFPLAPSSKSTSGGTAALGCLVKDYFPEPVTVSWNSGALTSGVHTFPAVLQSSGLYSLSSVVTVPSSSLGTQTYICNVNHKPSNTKVDKKVEPKSC |
| 0.0203 | 0.0669 | 0.182 |  |  | IL13433-0607 (other) heavy: EVQLVESGGGLVQPGGSLRLSCAASGFTFSSYAMSWVRQAPGKGLEWVASISTGDTTYYPDSVKGRFTISRDNAKNSLYLQMNSLRAEDTAVYYCARNEGYYFGLTQWGRGTLVTVSSASTKGPSVFPKAPSSKSTSGGTAALGCLVKDYFPEPVTVSWNSGALTSGVHTFPAVLQSSGLYSLSSSVTVPSSSLGTQTYICNVNHKPSNTKVDKKVEPKSCDKTHTCPPCPAPEAAGAPSVFLFPPKPKDTLMISRTPEVTCVVVDVSHEDPEVKFNWYVDGVEVHNAKTKPREEQYNSTYRVVSVLTVLHQDWLNGKEYKCKVSNKALPAPIEKTISKAKGQPREPQVCTLPPSREEMTKNQVSLWCLVKGFYPSDIAVEWESNGQPENNYKTTPPVLDSDGSFFLYSKLTVDKSRWQQGNVFSCSVLHEALHSHYTQKSLSLSPGK chain 1: DIQMTQSPSSLSASVGDRVTITCRASQPISKHLDWYQQKPGKAPKLLIYFTNNLQTGVPSRFSGSGSGTDFTLTISSLQPEDFATYYCFQYNQGWTFGGGTKVEIKRTVAAPSVFIFPPSDEQLKSGTASVVCLLNNFYPREAKVQWKVDNALQSGNSQESVTEQDSKDSTYSLSSTLTLSKADYEKHKVYACEVTHQGLSSPVTKSFNRGECGGGGSEVTLRESGPALVKPTQTLTLTCTFSGFSLSNFGEGLSWIRQPPGKGLEWLAHIYWDDDKRYSTSLKTRLTISKDTSRNQVVLTMTNMDPVDTATYYCARRETVFYWYFDVWGQGTTVTVSSASTKGPSVFPEAPSSKSTSGGTAALGCLVKDYFPEPVTVSWNSGALTSGVHTFPAVLQSSGLYSLGSVVTVPSSSLGTQTYICNVNHKPSNTKVDKKVEPKSCDKTHTCPPCPAPEAAGAPSVFLFPPKPKDTLMISRTPEVTCVVVDVSHEDPEVKFNWYVDGVEVHNAKTKPREEQYNSTYRVVSVLTVLHQDWLNGKEYKCKVSNKALPAPIEKTISKAKGQPREPQVYTLPPCREEMTKNQVSLSCAVKGFYPSDIAVEWESNGQPENNYKTTPPVLDSDGSFFLVSKLTVDKSRWQQGNVFSCSVLHEALHSHYTQKSLSLSPGK light 1: DIQMTQSPSSLSASVGDRVTITCRASESVDHFGWSLVHWYQQKPGKAPKLLIYRADSLETGVPSRFSGSGSGTDFTLTISSLQPEDFATYYCQQSNEDPWTFGGGTKVEIKRTVAAPSVFIFPPSDEQLKSGTASVSCLLNNFYPREAKVQWKVDNALQSGNSQESVTEQDSKDSTYSLDSTLTLSKADYEKHKVYACEVTHQGLSSPVTKSFNRGEC light 2: DIQMTQSPSSLSASVGDRVTITCRASQSVDEEGDSYMNWYQQKPGKAPKLLIYAASNLESGVPSRFSGSGSGTDFTLTISSLQPEDFATYYCQQSHKDPPTFGGGTKVEIKRTVAAPSVFIFPPSDEQLKSGTASVSCLLNNFYPREAKVQWKVDNALQSGNSQESVTEQDSKDSTYSLKSTLTLSKADYEKHKVYACEVTHQGLSSPVTKSFNRGEC chain 2: EVQLVESGGGLVQPGGSLRLSCAASGFTFSSYWMYWVRQAPGKGLEWVAAITPNAGEDYYPESVKGRFTISRDNAKNSLYLQMNSLRAEDTAVYYCARGHYYYTSYSLGYWGQGTLVTVSSASTKGPSVFPLAPSSKSTSGGTAALGCLVKDYFPEPVTVSWNSGALTSGVHTFPAVLQSSGLYSLSSVVTVPSSSLGTQTYICNVNHKPSNTKVDKKVEPKSC |
|  |  |  | 0.00323 | 0.00323 | IL4-1040 (antibody, human IgG1, kappa, V domains shown) VH: EVTLRESGPALVKPTQTLTLTCTFSGFSLSNFGEGLSWIRQPPGKGLEWLAHIYWDDDKRYNPSLKSRLTISKDTSRNQVVLTMTNMDPVDTATYYCARRETVFYWYFDVWGQGTTVTVSS VL: DIQMTQSPSSLSASVGDRVTITCRASQSVDEEGDSYMNWYQQKPGKAPKLLIYAASNLESGVPSRFSGSGSGTDFTLTISSLQPEDFATYYCQQSNKDPPTFGGGTKVEIKR |
